Experimental data taken from US20120316113A1, “FGF BASED FIBRIN BINDING PEPTIDES” (Baxter Healthcare S.A., priority 2011, published 2012).
Entries after “also recorded” stand apart in the source; their conditions may differ. Ends that are not written are not given here.

How the values were obtained:
fibrinogen [1] = biological target: T1, fibrinogen (Homo sapiens, UniProt P02671+P02675+P02679); assay: Surface plasmon resonance (SPR) binding to fibrinogen coupled to gold sensor chip; conditions: fibrinogen on sensor chip; fitted association curves
T1 sequence (P02671 20-629 limits assumed): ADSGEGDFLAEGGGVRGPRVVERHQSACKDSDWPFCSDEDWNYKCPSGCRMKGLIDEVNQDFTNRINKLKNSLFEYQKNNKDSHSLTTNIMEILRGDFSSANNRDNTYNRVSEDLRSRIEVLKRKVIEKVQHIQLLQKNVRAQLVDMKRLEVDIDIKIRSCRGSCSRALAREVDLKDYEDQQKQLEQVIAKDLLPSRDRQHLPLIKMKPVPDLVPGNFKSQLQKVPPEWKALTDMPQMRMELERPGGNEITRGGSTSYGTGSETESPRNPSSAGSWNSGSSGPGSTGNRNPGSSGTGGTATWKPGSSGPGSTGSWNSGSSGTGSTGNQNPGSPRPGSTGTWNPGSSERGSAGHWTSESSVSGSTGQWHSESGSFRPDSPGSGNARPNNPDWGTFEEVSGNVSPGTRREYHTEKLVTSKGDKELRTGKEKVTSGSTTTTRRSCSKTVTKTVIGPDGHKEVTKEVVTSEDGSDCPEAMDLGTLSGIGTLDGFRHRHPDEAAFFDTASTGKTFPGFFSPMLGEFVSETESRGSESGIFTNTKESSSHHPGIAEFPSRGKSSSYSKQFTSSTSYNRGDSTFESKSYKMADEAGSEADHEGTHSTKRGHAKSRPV
T1 sequence (P02675 31-491): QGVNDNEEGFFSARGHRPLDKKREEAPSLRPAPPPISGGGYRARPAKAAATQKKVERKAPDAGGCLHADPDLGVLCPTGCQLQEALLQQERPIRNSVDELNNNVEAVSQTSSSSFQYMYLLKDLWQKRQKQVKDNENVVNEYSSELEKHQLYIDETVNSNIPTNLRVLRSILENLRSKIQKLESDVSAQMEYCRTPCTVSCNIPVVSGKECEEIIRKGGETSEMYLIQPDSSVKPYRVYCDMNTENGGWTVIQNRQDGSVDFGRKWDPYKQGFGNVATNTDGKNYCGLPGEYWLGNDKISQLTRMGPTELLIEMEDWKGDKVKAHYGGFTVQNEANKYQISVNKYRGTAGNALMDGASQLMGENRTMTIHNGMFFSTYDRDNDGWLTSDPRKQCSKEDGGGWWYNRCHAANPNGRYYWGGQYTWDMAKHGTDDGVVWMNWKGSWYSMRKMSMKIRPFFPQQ
T1 sequence (P02679 27-433 limits assumed): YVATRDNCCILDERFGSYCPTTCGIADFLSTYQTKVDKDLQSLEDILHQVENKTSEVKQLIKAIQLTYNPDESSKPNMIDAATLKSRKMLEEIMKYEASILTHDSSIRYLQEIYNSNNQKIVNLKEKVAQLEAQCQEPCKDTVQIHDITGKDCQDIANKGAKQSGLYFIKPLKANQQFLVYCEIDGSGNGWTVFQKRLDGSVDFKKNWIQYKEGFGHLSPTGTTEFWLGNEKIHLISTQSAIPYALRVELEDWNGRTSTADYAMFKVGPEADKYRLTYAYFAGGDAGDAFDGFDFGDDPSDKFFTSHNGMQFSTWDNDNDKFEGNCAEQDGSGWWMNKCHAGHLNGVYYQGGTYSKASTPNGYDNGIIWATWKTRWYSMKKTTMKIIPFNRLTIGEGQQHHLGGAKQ
Method: (§1) A polystyrene 96-well plate (Nunc® Maxisorp EUSA-plates) was coated with 1 mg/ml fibrinogen (Tisseel®, Baxter AG, Vienna) overnight at 4° C. and then blocked with blocking solution (PBS+1% BSA) for 2 hours at room temperature CRT). After washing three times with PBS, purified peptides were added in various dilutions to the plate and incubated for 1 hour at RT. After the three times washing with PBS, a monoclonal anti-His6-peroxidase antibody (Sigma-Aldrich, Vienna), diluted in PBS+0.1% Tween (Sigma-Aldrich, Vienna) was added and incubated for 1 hour at RT. Finally, the plate was washed three times with PBS again and wells were incubated with o-phenylenediaminehydrochlorid substrate. Absorbance was measured at 492 nm and 620 nm. For fibrin binding analysis, the plate was first coated with fibrinogen overnight at 4° C. and then incubated with 10 I.U./ml thrombin (Tisseel, Baxter AG, Vienna) for 30 minutes at 37° C. The following procedure was the same as described above. For the surface plasmon resonance (SPR) method fibrinogen was coupled to a gold sensor chip (10% COOH—(PEG)6-C11—SH, 90% OH(PEG)3-C11—SH; Reichert Analytical, NY, USA) by amine chemistry using EDC (1-ethyl-3-[3-dimethylaminopropyl]carbodiimide hydrochloride) and NHS (N-hydroxysuccinimide) (Pierce, Ill., USA). Uncoupled sites on the gold sensor chip were blocked with 1 M ethanolamine pH 8.5 (Sigma-Aldrich, MO, USA). The purified recombinant proteins and peptides were passed over the chip's surface at a flow rate of 0.4 ml/min to 0.8 ml/min and allowed to interact. The signals were detected and recorded at the Reichert SR7000 Surface Plasmon Resonance Analytical Instrument (Reichert Analytical, NY, USA). After each measurement the sensor chip surface was regenerated by a pulse with 100 mM phosphoric acid (Mallinckrodt Chemicals, NJ, USA) after each application of the samples. Association and dissociation signals were fitted to one association curve using a prism software calculation program.

fibrinogen [2] = biological target: T1, fibrinogen; assay: Fibrinogen binding assay by ELISA; conditions: plate coated with 1 mg/ml fibrinogen, various concentrations, anti-His6-peroxidase detection
Method: as §1
Purified, proteins and peptides in different concentrations were used for testing the binding affinity to fibrinogen and fibrin (FIG. 5).

[3] = 146 amino acid variant; cited from earlier work
[4] = test system: mouse myoblast cell line (C2C12); assay: Biological activity: viability (MTT) assay of mouse myoblast C2C12 cells; format: cell-based
Method: A moose myoblast cell line (C2C12; ECACC (Sigma-Aldrich, Vienna)) was grown in Dulbecco's Modified Eagle Medium (DMEM) with 10% fetal calf serum (FCS). At 50-60% confluence cells were trypsinized and transferred to a 24-well plate (1×10^4/well).
Following a 48-hour-culture period at 37° C., cells were washed with DMEM only and then covered with medium (DMEM+1% FCS) containing various concentrations of hFGF-2 or hFGF-2 peptides. After 48 hours number of viable cells was determined by adding 3-(4,5-dimethylthiazol-2-yl)-2,5-diphenyltetrazolium bromide (MTT, Sigma-Aldrich, Vienna) as previously described {M05}.

binding signal (SPR) (fibrinogen [1])	binding affinity to fibrinogen (fibrinogen [2])	Substance	isoelectric point [3]	proliferative activity / cell growth effect ([4]; 48 hours, DMEM+1% FCS, MTT)	concentration dependence of biological activity ([4]; various concentrations)	activity retained relative to the full length protein ([4]; relative to full length hFGF-2)
weak and short binding signals	high affinity	EERGVVSIKGVCANRYLAMKEDGRLLASKCVTDECFFFERLESNNYNTYRSR (EERGVVSIKGVCANRYLAMKEDGRLLASKCVTDECFFFERLESNNYNTYRSR; not fully specified (C-terminus); cysteine pairing not given here) [pep1, recombinant truncated hFGF-2 peptide (68 aa) with C-terminal 6x HIS-tag, expressed as GST fusion in E. coli and cleaved]				
	high affinity	Human Fibroblast growth factor-2 [hFGF-2, reference compound]	9.6	highest proliferative activity; also recorded: highest cell growth effect	concentration dependent biological activity	
weak and short binding signals	high affinity	GVCANRYLAMKEDGRLLASKCVTDECFFFERLESNNYNTYRSR (GVCANRYLAMKEDGRLLASKCVTDECFFFERLESNNYNTYRSR; not fully specified (C-terminus); cysteine pairing not given here) [pep2, recombinant truncated hFGF-2 peptide (48 aa) with C-terminal 6x HIS-tag, ~5.2 kD]				approximately 50%
